From patent publication US20170101466A1 (published 2017)

Assays:
[1] = target: T1, soluble human BLyS (human, UniProt Q9Y275 134-285); assay: DELFIA competition, Eu-hBLyS binding to coated BR3
T1 construct: also called hBLyS; human BAFF (BLyS)
Experimental: (§1) After 5× washing with 200 ul/well of DELFIA 1× wash solution (PE, Cat #4010-0010), plates were blocked with 3% BSA purified from trace heavy metal amounts (PE, Cat #CR84-100) for 3 hours with shaking at room temperature. Plates were washed again five times at 200 μl/well with DELFIA wash solution.
(§2) The final 3 wells across the plate served as controls (2 wells contained 2,000 pM mAbs for negative and background controls while the third contained no mAbs for positive control). […] After 18-24 hrs at 4° C., plates were read on PE EnVision plate reader with laser excitation, LANCE/DELFIA top mirror, and emission filter Eu-615 with a delay of 400 μs. Data were fit to four parameter (variable slope) inhibition dose response curve using GraphPad PRISM 5.0 software.

[2] = target: T2, soluble mouse BLyS (mouse, UniProt Q9WU72 127-309); assay: Biacore, antibody captured on chip, BLyS injected, 1:1 model, 25 C
T2 construct: europium-labelled in DELFIA; also called mBLyS; mouse BAFF (BLyS)
Experimental: (§3) Recombinant protein NG (Thermo Scientific, Cat #21186) was diluted to 100 μg/ml in 10 mM sodium acetate pH 4.0 and then immobilized on the surface of a pre-activated Series S CM5 Biacore chip (GE, Cat #BR-1005-34) using amine coupling. […] After the dissociation period, the chip was regenerated back to baseline by injecting 10 mM glycine pH 1.5 for 120 seconds over the four flow cells. […] The entire data set was fit to a 1:1 interaction model to give kₒₙ, koff, and Kd values. The assay was run at 25° C. in 1× biacore running buffer HBS-EP+ (GE, Cat #BR-1006-69).

[3] = target: T1, soluble human BLyS; assay: as above
Experimental: as §3

[4] = target: T3, mouse APRIL (mouse, UniProt Q9D777 96-241, limits assumed); assay: Biacore, antibody captured, APRIL injected
T3 construct: Bought recombinant protein; also called mAPRIL
T3 sequence (looked up): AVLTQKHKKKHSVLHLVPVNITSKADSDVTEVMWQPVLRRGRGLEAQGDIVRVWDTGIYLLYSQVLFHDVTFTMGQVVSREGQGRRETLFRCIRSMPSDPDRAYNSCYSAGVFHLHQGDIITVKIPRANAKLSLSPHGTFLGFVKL
Experimental: (§4) Recombinant protein NG (Thermo Scientific, Cat #21186) was diluted to 100 μg/ml in 10 mM Sodium Acetate pH 4.0 and then immobilized on the surface of a pre-activated Series S CM4 Biacore chip (GE, Cat #BR-1005-34) using amine coupling. […] Binding response was measured as the difference in total RU increase during 300 second APRIL injection of each individual flow cell and the reference flow cell (e.g., Flow cell 2-1).

[5] = target: T4, human APRIL (human, UniProt O75888 105-250, limits assumed); assay: Biacore, antibody captured, APRIL injected
T4 construct: Bought recombinant protein; also called hAPRIL
T4 sequence (looked up): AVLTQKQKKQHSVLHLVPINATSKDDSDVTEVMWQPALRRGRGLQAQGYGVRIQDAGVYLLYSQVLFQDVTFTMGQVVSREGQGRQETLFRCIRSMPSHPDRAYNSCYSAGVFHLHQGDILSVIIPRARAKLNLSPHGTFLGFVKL
Experimental: as §4

[6] = target: T2, soluble mouse BLyS; assay: DELFIA competition, Eu-mBLyS binding to coated BCMA
Experimental: as §1, §2

[7] = target: T2, soluble mouse BLyS; assay: cell-based or functional assay
[8] = target: T1, soluble human BLyS; assay: cell-based or functional assay
[9] = target: T2, soluble mouse BLyS; assay: Biacore T100, binder captured by anti-human Fc, BLyS injected, 1:1 model
Experimental: (§5) A Series S CM5 Chip (GE Healthcare) was amine coupled with an anti-human Fc capturing antibody (GE Healthcare Human Fc Kit) to >10,000 RUs. Sample antibodies were diluted in 1×HBS-EP+ running buffer to 0.15 ug/mL and injected for 45 seconds at 10 uL/min. […] Biacore Evaluation software was used to fit the data to a 1:1 Binding Model.

[10] = target: T1, soluble human BLyS; assay: as above
Experimental: as §5

[11] = target: T2, soluble mouse BLyS; assay: DELFIA competition, Eu-mBLyS binding to coated TACI
Experimental: as §1, §2

[12] = target: T1, soluble human BLyS; assay: DELFIA competition, Eu-hBLyS binding to coated BCMA
Experimental: as §1, §2

[13] = target: T1, soluble human BLyS; assay: DELFIA competition, Eu-hBLyS binding to coated TACI
Experimental: as §1, §2

[14] = target: T2, soluble mouse BLyS; assay: DELFIA competition, Eu-mBLyS binding to coated BR3
Experimental: as §1, §2

[15] = target: T3, mouse APRIL; assay: Biacore, binder captured, APRIL injected at 50 nM
Experimental: as §4

[16] = target: T4, human APRIL; assay: Biacore, binder captured, APRIL injected at 50 nM
Experimental: as §4

[17] = target: T1, soluble human BLyS; assay: ELISA, soluble hBLyS; soluble hBLyS ELISA (weak, IC50 28 nM)
[18] = target: T2, soluble mouse BLyS; assay: ELISA, soluble mBLyS
[19] = target: T1, soluble human BLyS; assay: blocking of biotinylated soluble hBLyS binding to immobilized mBR3; hBLyS/mBR3 receptor blocking assay; no blocking up to 100 nM
[20] = target: T5, soluble cynomolgus BLyS (cynomolgus, UniProt A0A2K5V2X4 134-285); assay: ELISA, soluble cyBLyS
T5 construct: Soluble form; also called cyBLyS; Soluble cyBLyS

[21] = target: T2, soluble mouse BLyS; assay: Biacore
[22] = target: T1, soluble human BLyS; assay: ELISA, soluble hBLyS; soluble hBLyS ELISA

B1: 5B7 IgG1 F243A/V264A double mutein expressed in Pichia pastoris (antibody, V domains shown)
VH: QVQLVQSGAEVKKPGASVKVSCKASGGTFSSYAISWVRQAPGQGLEWMGGIIPIFGTANYAQKFQGRVTITADKSTSTAYMELSSLRSEDTAVYYCARVDYDILTGYYMGYFDYWGQGTLVTVSS
VL: DIVMTQSPATLSLSPGERATLSCRASQSVSSYLAWYQQKPGQAPRLLIYDASNRATGIPARFSGSGSGTDFTLTISSLEPEDFAVYYCQQRSNWPITFGQGTRLEIKR
notes: IgG1 F243A/V264A (EU) double mutein, alpha-2,6-sialylated, from glycoengineered Pichia pastoris; also called 5B7-DM; 5B7-DM Pichia
An IC50 [1] of 37.7 pM, a Kd [2] of 65 pM and a koff [2] of 4e-05 s⁻¹ were found for B1 in this work. The kon [2] was 620000 M⁻¹ s⁻¹, the Kd [3] was 179 pM and the koff [3] was 3.5e-05 s⁻¹. The kon [3] was 190000 M⁻¹ s⁻¹, the binding result [4] was “no binding (tested: 50 nM)” and the binding result [5] was “no binding (tested: 50 nM)”. The IC50 [6] was < 0.3 pM, the “IC50 mBLyS stimulated, mouse splenic B-cell proliferation” value [7] was ≤ 1 ng/mL and the “IC50 hBLyS stimulated, mouse splenic B-cell proliferation” value [8] was ≤ 1 ng/mL. The Kd [9] was 37 pM, the koff [9] was 0.000102 s⁻¹ and the kon [9] was 2.73e+06 M⁻¹ s⁻¹. For the same binder, the Kd [10] was 68 pM, the koff [10] was 4.6e-05 s⁻¹ and the kon [10] was 678000 M⁻¹ s⁻¹. For the same binder, the IC50 [11] was < 0.3 pM, the IC50 [12] was 1.6 pM and the IC50 [13] was 0.51 pM. For the same binder, the IC50 [14] was 94 pM.

B2: mouse TACI (R&D Systems receptor chimera) (receptor, UniProt Q9ET35 2-129, looked up, not shown: a dimerising Fc or GST)
chain: AMAFCPKDQYWDSSRKSCVSCALTCSQRSQRTCTDFCKFINCRKEQGRYYDHLLGACVSCDSTCTQHPQQCAHFCEKRPRSQANLQPELGRPQAGEVEVRSDNSGRHQGSEHGPGLRLSSDQLTLYCT
notes: also called mTACI; TACI rec Mouse
B2 was tested, and the binding result [15] was “binds”, the binding result [16] was “binds” and the Kd [9] was 177 pM. The koff [9] was 0.000121 s⁻¹, the kon [9] was 682000 M⁻¹ s⁻¹ and the Kd [10] was 602 pM. It also gave a koff [10] of 0.000239 s⁻¹ and a kon [10] of 397000 M⁻¹ s⁻¹.

B3: 4A2 IgG expressed in HEK293 cells (antibody, V domains shown)
VH: QVQLVQSGGGVVQPGRSLRLSCAASGFTFSSYGMHWVRQAPGKGLEWVAVISHDGSNKYYADSVKGRFTISRDNSKNTLYLQMNSLRAEDTAVYYCAKDRSYYDILTGYYIPYYYGMDVWGQGTTVTVSS
VL: QAVLTQPPSASGTPGQKVTISCSGSSSDIGSNNVNWYQQFPGTAPKLLIHSNNLRPSGVPVRFSGSKSGTSASLAISGLQSEDEADYYCSAWDDSVNGVAFGGGTKLTVLG
notes: IgG from HEK293-FreeStyle cells
B3 was tested, and the IC50 [17] was 28000 pM, the IC50 [18] was 470 pM and the IC50 [19] was > 100000 pM. The IC50 [20] was 1460 pM and the Kd [21] was 48.6 pM.

B4: 1F4 IgG expressed in HEK293 cells (antibody, V domains shown)
VH: QVTLKESGPTLVKPTQTLTLTCTFSGFSLSTSRVGVGWIRQPPGKALEWLARIDWDDDKYYSTSLKTRLTISKDTSKNQVVLTMTNMDPVDTATYYCARTHTYYDILTGYSYHVYFDYWGQGTLVTVSS
VL: QSALTQPPSASGSRGQSVSISCSGSRSDIGYYNYVSWYQQHPGKAPKLIIFDVNKRPSGVPDRFSGSKSGNTASLTVSGLQPEDEADYYCASYGGRNNLLFGGGTQLTVLG
notes: IgG from HEK293-FreeStyle cells; also called IF4
An IC50 [22] of 2870 pM and an IC50 [20] of 110 pM were found for B4 in this work.
